Experimental data reported in article PMC6457933 (Science Advances, 2019).
Values belong to the molecule of their own block, whether it stands above or below them.

Columns and labels:
Assay in all cases: crystal structure
[1] = biological target: KR2 G263F mutant (Krokinobacter eikastus)
[2] = biological target: KR2 S254A mutant (Krokinobacter eikastus)
[3] = biological target: the molecule itself

stoichiometry N [1]: 5
Molecule: KR2 G263F mutant (natural protein)

stoichiometry N [2]: 5
Molecule: KR2 S254A mutant (natural protein)

B1: Krokinobacter eikastus rhodopsin 2 (KR2), wild type (natural protein)
chain: MTQELGNANFENFIGATEGFSEIAYQFTSHILTLGYAVMLAGLLYFILTIKNVDKKFQMSNILSAVVMVSAFLLLYAQAQNWTSSFTFNEEVGRYFLDPSGDLFNNGYRYLNWLIDVPMLLFQILFVVSLTTSKFSSVRNQFWFSGAMMIITGYIGQFYEVSNLTAFLVWGAISSAFFFHILWVMKKVINEGKEGISPAGQKILSNIWILFLISWTLYPGAYLMPYLTGVDGFLYSEDGVMARQLVYTIADVSSKVIYGVLLGNLAITLSKNKELVEANS
modifications: retinal covalently bound to Lys255 via the Schiff base
stoichiometry N [3]: 5
